Test results reported in article PMC10853454, “ADAM19 cleaves the PTH receptor and associates with brachydactyly type E” (Life Science Alliance, 2024).

What was measured:
ADAM19 / EYFP-PTHR1 = assay: ADAM19 shedding assay, EYFP-PTHR1 supernatant/cell fluorescence ratio; assay type: cell-based, human; conditions: HEK-293T cells, EYFP-PTHR1 + WT ADAM19; 100 μM ilomastat in DMEM from 1 h after transfection, 48 h (method: 47 h); EYFP fluorescence 500/539 nm; n = 5, t test
Description: For fluorescence-based shedding experiments, HEK-293T cells were seeded in six-well cell culture plates at a density of 500,000 cells per well 24 h prior to transfection. Next day, cells in each well were transfected with 0.4 μg EYFP-PTHR1 plasmid and 0.8 μg ADAM19 or empty pcDNA3 vector plasmids. For the experiments in which the different ADAM:EYFP-PTHR1 ratios were examined, cells were transfected with a constant 0.3 μg EYFP-PTHR1 construct alongside with varying amounts of ADAM19 and pcDNA constructs to maintain the total DNA amount of 1.2 μg. 1 h after transfection, cells were supplemented with DMEM or with 100 μM ilomastat dissolved in DMEM. […] 96-well plate fluorescence measurements were performed using a Biotek Neo2 multi-well plate reader. EYFP intensity was measured using high lamp power settings at an excitation wavelength of 500/18 nm. Fluorescence was detected using a monochromator set to 539/20 nm for emission and a photomultiplier tube set to 120 V gain. To calculate and quantify the ADAM19-mediated shedding of PTHR1 N-terminus, background fluorescence value obtained from pure DMEM was subtracted from fluorescence values obtained from cell culture medium (Fsupernatant) and cell suspensions (Fcell), and then the ratio of background-corrected fluorescence values was calculated: Ratio = Fsupernatant/Fcell. […]

ADAM19 cleavage of PTHR1 = assay: PTHR1 cleavage by ADAM19, Western blot after PNGase F de-glycosylation; assay type: cell-based, human; conditions: HEK-293T (text: HEK 293) cells, unmodified PTHR1 + ADAM19, 10 μM batimastat, inhibitors added 24 h, lysis 36 h after transfection, Western blot anti PTHR1 573–593
Description: HEK-293T cells were seeded onto 12-well plates and transfected with plasmids encoding human P[…], ADAM-19 using TransIT-293 (Mirus) according to the manufacturer's instructions. Protease inhibitors were added to the medium 24 h after transfection as indicated. 36 h after transfection, cells were washed with PBS and lysed in ice-cold radioimmune precipitation assay buffer (50 mM Tris-HCl, pH 7.5, 150 mM NaCl, 1% [wt/vol] Nonidet P-40, 0.1% [wt/vol] SDS, 0.5% [wt/vol] sodium deoxycholate, 5 mM EDTA) supplemented with a mix of protease inhibitors (5 μM leupeptin, 5 μM pepstatin-A, 1 mM 4-(2-aminoethyl) benzenesulfonyl fluoride). The lysates were cleared by centrifugation at 20,000g for 30 min at 4°C. For deglycosylation, lysates were incubated with 40 mM dethiothreitol and 0.5% SDS for 90 min at 25°C. Thereafter, 1 mg/ml PNGase F was added, and samples were incubated for 16 h at 4°C. Proteins were separated by 8% or 10% SDS-PAGE and transferred onto PVDF membranes ([…], #T830.1; Carl Roth). The membranes were blocked in 5% skimmed milk powder (Sigma-Aldrich) or in casein solution (Sigma-Aldrich) for 1 h at RT. […] Proteins were detected either after short incubation in Immobilon Western ECL substrate (#WBKLS0500; Millipore) on an Odyssey FC device (Li-cor Biosciences) or on an Odyssey CLx scanner (Li-cor Biosciences). […]

[1] = test system: PTHR1 (cAMP accumulation); assay: FRET-based cAMP accumulation assay (Epac-S-H187) in U2OS cells; assay type: cell-based, human; conditions: 500 pM ligand
Description: For cAMP accumulation assays, U2OS cells were seeded on Poly-D- Lysine-coated 24 mm glass cover slips in 6-well plates at a density of 1.0 × 10^6 cells/well and transfected with 1–2.4 μg cDNA per cover slip using Effectene (QIAGEN) or NEON electroporation (Thermo Fisher Scientific) according to the manufacturer’s protocol. cDNA was transfected with the EPAC-S-H187 FRET-biosensor ([Klarenbeek et al, 2015]), PTHR1-wt and ADAM19 at a ratio of 1:1:2. Fluorescence microscopy experiments were performed 48 h after transfection. For single-cell FRET imaging experiments, transfected cells on coverslips were transferred to imaging chambers (Attoflur; Thermo Fisher Scientific) and washed once and maintained in FRET imaging buffer (144 mM NaCl, 5.4 mM KCl, 2 mM CaCl2 [Carl Roth GmbH & Co. KG], 1 mM MgCl 2 [AppliChem], 10 mM HEPES [Sigma-Aldrich Chemie GmbH]; pH = 7.3). For the experiment, the cells remained at RT throughout the experiment. […]
After selecting suitable cells at the microscope, regions of interest (single cells and a cell-free background region) were chosen and recording parameters were set using the Visiview 4.0 imaging software (Visitron Systems). Every 5 s, images of the donor and acceptor emission channels were recorded following donor excitation at 436 nm for 100 ms. […] After every experiment, direct YFP excitation at 505 nm (emission: 560 nm) was recorded as a unit of measurement for the expression level of the sensor.
For data analysis, raw emission intensities from CFP and YFP channels were exported and corrected for background (by subtracting the emission intensities of a cell free region) and bleed-through of the donor fluorescence into the acceptor channel ([Borner et al, 2011]). FRET ratios (CFP/FRET in %) were calculated and normalized to baseline average of 10 data points before ligand addition, set to 0% and Forskolin/3-iso-butyl-1 methylxanthine (max. cAMP response, set to 100%). […]

PTH1R = conditions: ref Hattersley et al, 2016; cited from earlier work
[2] = test system: PTHR1 (β-arrestin2 recruitment); assay: BRET β-arrestin2 recruitment to PTHR1 in U2OS cells; assay type: cell-based, human
Description: (§1) U2OS, Saos2 and HEK-293T cells were transfected with Gs or Gq protein BRET biosensors ([Che et al, 2010]), PTHR1 and ADAM19 at a ratio of 1:1:2. For β-arrestin2 BRET recruitment assay, PTHR1-Nanoluc was used with β-arrestin2-cpVenus and ADAM19 at a ratio of 1:1:2 ([Nemec et al, 2022]). Combinations were transfected with Effectene (QIAGEN) or NEON electroporation (Thermo Fisher Scientific) according to the manufacturer’s protocol with a total of 1–2.4 μg of cDNA. After 24 h cells were transferred into a PDL-precoated a white-wall, white-bottomed 96-well microtiter plate, at a density of 60,000 cells/well. 24 h after the reseeding, the medium was removed, and cells were washed once with PBS with 0.1% BSA and incubated with 90 μl of a 1:1,000 (vol:vol) stock solution of furimazine in PBS buffer. 5 min later, basal reads were recorded for 4 min and subsequently, 10 μl of 10-fold ligand solution or FRET buffer was applied to each well and the stimulated reads were further recorded. Measurements were performed at 37°C using a Synergy Neo2 Plate Reader with the NanoBRET filter set, integration time per data point was set to 0.3 s and gain to 110/140. Cells were excited at 510/20 nm and fluorescence emission was recorded at 560/20 nm for quantification of expression level ([Nemec et al, 2022]).

PTHR1 (Gs activation) = assay: BRET-based Gs activation by PTHR1; assay type: cell-based, human; conditions: HEK-293T cells with ADAM19; Gs BRET sensor, 37°C; three independent experiments in duplicates
Description: as §1

[3] = test system: PTHR1 (β-arrestin2 recruitment); assay: BRET β-arrestin2 recruitment to PTHR1 in SaOS cells; assay type: cell-based, human; conditions: SaOS (Saos2) cells; PTHR1-Nanoluc + β-arrestin2-cpVenus BRET, 37°C
Description: as §1

PTHR1 (Gq activation) = assay: BRET-based Gq activation by PTHR1; assay type: cell-based, human
Description: as §1

CNC(=O)[C@H](Cc1c[nH]c2ccccc12)NC(=O)[C@@H](CC(=O)NO)CC(C)C [Ilomastat (GM6001)]
inhibition of PTHR1 cleavage by ADAM19 (ADAM19 / EYFP-PTHR1): PTHR1 cleavage by ADAM19 was inhibited

CNC(=O)[C@H](Cc1ccccc1)NC(=O)[C@H](CC(C)C)[C@H](CSc1cccs1)C(=O)NO [batimastat]
PTHR1 species detected with ADAM19 co-expression (ADAM19 cleavage of PTHR1): only the 60 kD species of PTHR1 were detected

PTH1-34: PTHR1 ligand, BACHEM #4033364 (SVSEIQLMHNLGKHLNSMERVEWLRKKLQDVHNF; Parathyroid hormone; UniProt P01270 32-65, looked up, fragment)
increase of FRET ratio (CFP/FRET), average ([1]; U2OS cells with and without ADAM19, 0% = baseline, 100% = 10 μM Forskolin + 100 μM 3-iso-butyl-1 methylxanthine, "in both cases"): 70–80% | cAMP response ([1]; U2OS cells, PTH1R + Epac-S-H187, alone and with ADAM19, single-cell FRET, RT, pH 7.3): an increase in cAMP was detected | difference in cAMP response with vs without ADAM19 ([1]; U2OS cells, PTH1-34 n = 96 cells on 5 days (Welch t test), PTHrP n = 76 cells on 2 days (Mann-Whitney)): no significant differences

B1: PTH: parathyroid hormone; PTHR1 agonist, form used in BRET assays not specified (peptide, UniProt P01270 32-115, looked up)
Parathyroid hormone: SVSEIQLMHNLGKHLNSMERVEWLRKKLQDVHNFVALGAPLAPRDAGSQRPRKKEDNVLVESHEKSLGEADKADVNVLTKAKSQ
modifications: Parathyroid hormone
notes: parathyroid hormone; PTHR1 agonist, form used in BRET assays not specified
agonist type at PTH1R (PTH1R): full agonists | β-arrestin2 recruitment to PTHR1, presence vs absence of ADAM19 ([2]; PTHR1-Nanoluc + β-arrestin2-cpVenus BRET, 37°C, four experiments in quadruple): significantly increased β-arrestin translocation to the PTHR1 when ADAM19 was present | Top of the curve (maximum efficacy), β-arrestin2 recruitment, with vs without ADAM19 ([2]; three-parameter non-linear fit, extra sum of squares F test (<0.0001)): significantly different | Gs-activation for WT PTHR1 compared to cleavage-protected PTHR1-56-63A mutant (PTHR1 (Gs activation)): increased Gs-activation | β-arrestin2 recruitment to PTHR1, presence vs absence of ADAM19 [3]: significantly increased β-arrestin translocation to the PTHR1 when ADAM19 was present | Top of the curve (maximum efficacy), Gq, WT vs 56–63A mutant PTHR1 (PTHR1 (Gq activation); HEK293T with ADAM19, three-parameter non-linear fit, extra sum of squares F test (<0.0001), Fig 6B-E legend, panels not distinguished): significantly different | Gq-activation for WT PTHR1 compared to cleavage-protected PTHR1-56-63A mutant (PTHR1 (Gq activation); HEK-293T cells with ADAM19, Gq BRET sensor, 37°C, three independent experiments in duplicates): decreased Gq-activation
